The target in the experiment is FcγRIIIa on human PBMC effector cells (heterozygous V158/F158 or allotype not stated) (human) (UniProt P08637). The experiment is described as follows: cell-based or functional assay.
FcγRIIIa on human PBMC effector cells (heterozygous V158/F158 or allotype not stated) (human), sequence (P08637 17-254): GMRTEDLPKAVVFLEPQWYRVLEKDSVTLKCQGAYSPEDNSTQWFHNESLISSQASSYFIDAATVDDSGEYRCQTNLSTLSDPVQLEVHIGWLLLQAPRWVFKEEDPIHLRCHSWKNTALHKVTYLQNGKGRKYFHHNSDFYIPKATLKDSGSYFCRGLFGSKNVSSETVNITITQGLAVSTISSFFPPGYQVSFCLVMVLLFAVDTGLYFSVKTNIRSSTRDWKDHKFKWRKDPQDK

Take S239D/I332E alemtuzumab (antibody): the ADCC EC50, DoHH-2 target cells, human PBMCs turned out to be 3 ng/mL and the ADCC log(EC50), DoHH-2 target cells, human PBMCs is 0.49 log(ng/ml).
Taken in the same sequence, the figures for V264I/I332E alemtuzumab (antibody) were 4 ng/mL and 0.6 log(ng/ml).

The values are drawn from US20090010920A1.
